Reference: paper PMC9652393, “Differential impact of ubiquitous and muscle dynamin 2 isoforms in muscle physiology and centronuclear myopathy” (Nature Communications, 2022)

B1: Human ubiquitous dynamin 2 isoform (Ub-DNM2), recombinant (natural protein, UniProt P50570-2 1-866, looked up)
chain: MGNRGMEELIPLVNKLQDAFSSIGQSCHLDLPQIAVVGGQSAGKSSVLENFVGRDFLPRGSGIVTRRPLILQLIFSKTEHAEFLHCKSKKFTDFDEVRQEIEAETDRVTGTNKGISPVPINLRVYSPHVLNLTLIDLPGITKVPVGDQPPDIEYQIKDMILQFISRESSLILAVTPANMDLANSDALKLAKEVDPQGLRTIGVITKLDLMDEGTDARDVLENKLLPLRRGYIGVVNRSQKDIEGKKDIRAALAAERKFFLSHPAYRHMADRMGTPHLQKTLNQQLTNHIRESLPALRSKLQSQLLSLEKEVEEYKNFRPDDPTRKTKALLQMVQQFGVDFEKRIEGSGDQVDTLELSGGARINRIFHERFPFELVKMEFDEKDLRREISYAIKNIHGVRTGLFTPDLAFEAIVKKQVVKLKEPCLKCVDLVIQELINTVRQCTSKLSSYPRLREETERIVTTYIREREGRTKDQILLLIDIEQSYINTNHEDFIGFANAQQRSTQLNKKRAIPNQVIRRGWLTINNISLMKGGSKEYWFVLTAESLSWYKDEEEKEKKYMLPLDNLKIRDVEKGFMSNKHVFAIFNTEQRNVYKDLRQIELACDSQEDVDSWKASFLRAGVYPEKDQAENEDGAQENTFSMDPQLERQVETIRNLVDSYVAIINKSIRDLMPKTIMHLMINNTKAFIHHELLAYLYSSADQSSLMEESADQAQRRDDMLRMYHALKEALNIIGDISTSTVSTPVPPPVDDTWLQSASSHSPTPQRRPVSSIHPPGRPPAVRGPTPGPPLIPVPVGAAASFSAPPIPSRPGPQSVFANSDLFPAPPQIPSRPVRIPPGIPPGVPSRRPPAAPSRPTIIRPAEPSLLD
notes: dynamin 2 (DNM2), human, ubiquitous isoform; same variant of exon 10 as the M-DNM2 plasmid; No tag is stated for the pVL1392 constructs; also called WT Ub-DNM2
B2: Human SH3 domain of BIN1 with Glutathione S-transferase (GST) tag (domain or fragment, UniProt O00499 520-593, looked up)
chain: GFMFKVQAQHDYTATDTDELQLKAGDVVLVIPFQNPEEQDEGWLMGVKESDWNQHKELEKCRGVFPENFTERVP
notes: amphiphysin 2 (BIN1), human, SH3 domain; The methods also describe cutting off the GST tag with PreScission on the beads; also called GST-SH3; GST-SH3 of BIN1

Experiments:
[1] = molecular target: the molecule itself; experiment: SEC-MALS; Superose 6 10/300 GL; 20 mM HEPES pH 7.4, 1.5 M NaCl, 1 mM EGTA, 1 mM DTT, 5% glycerol; 4 °C, 0.5 ml/min
[2] = molecular target: B1; experiment: pull-down; GST-SH3 of BIN1 (0.16, 0.4 or 1.6 ml supernatant) bound to GSH-Sepharose overnight, washed with 300 mM NaCl, 50 mM Tris pH 8.0, 5 mM imidazole, 1 mM DTT; 0.07 mg purified M-DNM2 or Ub-DNM2 added for 20 min, washed; resin loaded on SDS-PAGE; conditions: both partners purified

Row | binding result [2] | Binder | binding result [1]
1 | – | B1 | binds
2 | binds | B2 | –
